Source: US20210253998A1 (published 2021)

T1: Mta2 (endogenous, mouse cells) (mouse, UniProt Q9R190 1-668)
T1 sequence (looked up): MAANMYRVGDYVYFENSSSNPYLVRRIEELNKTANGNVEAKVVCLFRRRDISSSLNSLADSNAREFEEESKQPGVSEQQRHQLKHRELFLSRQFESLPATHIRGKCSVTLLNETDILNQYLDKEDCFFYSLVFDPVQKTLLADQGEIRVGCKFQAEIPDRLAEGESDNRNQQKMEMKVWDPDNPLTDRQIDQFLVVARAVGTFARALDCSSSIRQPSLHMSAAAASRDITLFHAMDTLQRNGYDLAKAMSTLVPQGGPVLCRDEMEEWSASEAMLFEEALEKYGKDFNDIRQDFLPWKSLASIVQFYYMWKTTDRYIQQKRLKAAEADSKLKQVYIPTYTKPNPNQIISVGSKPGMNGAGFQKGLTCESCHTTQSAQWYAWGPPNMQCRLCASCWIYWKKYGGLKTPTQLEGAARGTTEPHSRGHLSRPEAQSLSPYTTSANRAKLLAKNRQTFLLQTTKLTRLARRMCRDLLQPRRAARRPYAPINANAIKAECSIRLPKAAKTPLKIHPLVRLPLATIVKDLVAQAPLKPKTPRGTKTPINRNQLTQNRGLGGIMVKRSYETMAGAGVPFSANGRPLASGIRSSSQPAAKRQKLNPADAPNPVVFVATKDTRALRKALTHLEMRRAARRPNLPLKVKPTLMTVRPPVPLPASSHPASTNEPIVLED


Tests used:
[1] = molecular target: T2, Mbd2 (endogenous, mouse ESCs) (mouse, UniProt Q9Z2E1 1-414, limits assumed); assay: co-IP with flag beads from ESCs carrying a Flag-tagged Mbd3 transgene, western blot
Description: FIG. 61A—The present inventors established an ESC line carrying recovery of Flag-tagged Mbd3 transgene inserted in Mbd3^{-/-} ESC line. […] Moreover, Mbd3 interacts with Sall4 pluripotency reprogramming factor in ESCs. […] These assays recapitulate observation in many other cell lines where Mbd2 and Mbd3 form mutually exclusive complexes (Le Guezennec, X. et al. Mol. Cell. Biol. 26, 843-851, 2006; Aguilera, C. et al. Nature 469, 231-235, 2011).

[2] = molecular target: T1, Mta2 (endogenous, mouse cells); assay: co-IP from a control ESC line, western blot
[3] = molecular target: T2, Mbd2 (endogenous, mouse ESCs); assay: pull down of Mbd2 from a control ESC line, western blot

T2 sequence (Q9Z2E1 whole entry): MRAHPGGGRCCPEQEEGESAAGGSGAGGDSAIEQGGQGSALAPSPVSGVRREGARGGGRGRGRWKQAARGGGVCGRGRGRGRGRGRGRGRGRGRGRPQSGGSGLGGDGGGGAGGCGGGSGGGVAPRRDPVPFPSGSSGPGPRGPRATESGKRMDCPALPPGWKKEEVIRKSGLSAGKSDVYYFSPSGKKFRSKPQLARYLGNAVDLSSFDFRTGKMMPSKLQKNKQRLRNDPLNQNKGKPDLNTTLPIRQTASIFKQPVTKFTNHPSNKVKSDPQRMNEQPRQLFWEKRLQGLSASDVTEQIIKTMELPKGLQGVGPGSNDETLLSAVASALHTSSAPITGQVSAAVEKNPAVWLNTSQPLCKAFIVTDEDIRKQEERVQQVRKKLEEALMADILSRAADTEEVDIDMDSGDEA

binding result [1] | binding result [2] | binding result [3] | Binder
no binding |  |  | Flag-tagged Mbd3 (other, also called pCaggs-Flag-Mbd3; Flag-tagged Mbd3 transgene; not shown: Flag tag) MERKRWECPALPQGWEREEVPRRSGLSAGHRDVFYYSPSGKKFRSKPQLARYLGGSMDLSTFDFRTGKMLMSKMNKSRQRVRYDSSNQVKGKPDLNTALPVRQTASIFKQPVTKITNHPSNKVKSDPQKAVDQPRQLFWEKKLSGLNAFDIAEELVKTMDLPKGLQGVGPGCTDETLLSAIASALHTSTMPITGQLSAAVEKNPGVWLNTTQPLCKAFMVTDEDIRKQEELVQQVRKRLEEALMADMLAHVEELARDGEAPLDKACAEDDDEEDEEEEEEEPDPDPEMEHV
 | binds | no binding | Mbd3 (endogenous, mouse cells) (other, UniProt Q9Z2D8 1-285, looked up) MERKRWECPALPQGWEREEVPRRSGLSAGHRDVFYYSPSGKKFRSKPQLARYLGGSMDLSTFDFRTGKMLMNKMNKSRQRVRYDSSNQVKGKPDLNTALPVRQTASIFKQPVTKITNHPSNKVKSDPQKAVDQPRQLFWEKKLSGLSAFDIAEELVRTMDLPKGLQGVGPGCTDETLLSAIASALHTSTLPITGQLSAAVEKNPGVWLNTAQPLCKAFMVTDDDIRKQEELVQQVRKRLEEALMADMLAHVEELARDGEAPLDKACAEEEEEEEEEEEEPEPERV
